Reference: article PMC10641529, “Selective targeting and clustering of phosphatidylserine lipids by RSV M protein is critical for virus particle production” (The Journal of Biological Chemistry, 2023)

Key:
[1] = molecular target: His6-GCN4-FCT (Histidine tag and GCN4 leucine zipper domain fused to the cytoplasmic tail of the RSV fusion (F) glycoprotein) (not stated | human respiratory syncytial virus); assay: SDS-PAGE with Western blotting; purified His-GCN4-FCT on SDS-PAGE, detected with an anti-His antibody
RSV M protein = molecular target: T1, RSV M protein (Human respiratory syncytial virus A2, UniProt P0DOE7); assay: LUV cosedimentation, SDS-PAGE densitometry; assay type: binding; details: PC:PS (70:30) LUVs; accessible PS 50 μM to 1.5 mM; 8 μM M; 150 mM NaCl, 10 mM Tris-HCl, pH 7.4, 25 °C; acyl chains of PS not told; read-out: Kd,app
T1 construct: full-length M, recombinant from E. coli Rosetta 2 (pCDF-M); His6 tag cut with 3C protease; dimer
T1 sequence (P0DOE7 whole entry): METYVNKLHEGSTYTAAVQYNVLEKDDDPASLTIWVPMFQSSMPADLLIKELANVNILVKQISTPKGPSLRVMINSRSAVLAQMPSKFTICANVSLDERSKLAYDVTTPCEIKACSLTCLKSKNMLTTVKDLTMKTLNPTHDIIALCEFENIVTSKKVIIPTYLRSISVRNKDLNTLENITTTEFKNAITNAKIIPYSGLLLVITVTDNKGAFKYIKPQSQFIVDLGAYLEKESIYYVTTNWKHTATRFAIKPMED

Substance | stoichiometry N [1] | Kd (RSV M protein) [µM]
His6-GCN4-FCT (Histidine tag and GCN4 leucine zipper domain fused to the cytoplasmic tail of the RSV fusion (F) glycoprotein) | 3 | 
phosphatidylserine [PS] |  | 15 to 57
